Data as given in article PMC5093151.

Test system: GII.4 Sydney (SYV) norovirus VLP, assembled capsid protein VP1 (Human norovirus GII.4 Sydney)
Assay: ELASA (plate binding)
Conditions: VLP heated 75 C 1 min (partly denatured); 1 uM aptamer; ELASA: VLPs on polystyrene plate, blocked with 5% skim milk in PBS + 0.05% Tween 20 with 10 nM unrelated primers (2 h, room temperature), 1 uM biotinylated …

Question: “AGTATACGTATTACCTGCAGCTGGGAAGAGGTCCGGTAAATGCAGGGTCAGCCCGGAGAGCGATATCTCGGAGATCTTGC [M6-2]” was tested. Which binding signal (% of signal with untreated VLP) did it give?
Answer: 20.1
